Results taken from US20250346644A1 (LATTICON SUZHOU BIOPHARMACEUTICALS, published 2025).
Changes are numbered by the printed parent chain. Names may count otherwise.

T1: high-affinity IL2R expressed on the surface of CTLL-2 cells
T1 sequence (P01590 whole entry, species assumed, looked up): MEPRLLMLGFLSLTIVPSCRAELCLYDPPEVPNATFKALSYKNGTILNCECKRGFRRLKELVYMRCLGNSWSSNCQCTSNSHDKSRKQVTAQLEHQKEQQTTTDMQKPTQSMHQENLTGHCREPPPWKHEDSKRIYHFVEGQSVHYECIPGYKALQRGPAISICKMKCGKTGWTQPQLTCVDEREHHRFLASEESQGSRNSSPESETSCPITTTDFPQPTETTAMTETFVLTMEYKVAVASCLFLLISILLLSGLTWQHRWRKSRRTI
T1 sequence (P16297 whole entry, species assumed, looked up): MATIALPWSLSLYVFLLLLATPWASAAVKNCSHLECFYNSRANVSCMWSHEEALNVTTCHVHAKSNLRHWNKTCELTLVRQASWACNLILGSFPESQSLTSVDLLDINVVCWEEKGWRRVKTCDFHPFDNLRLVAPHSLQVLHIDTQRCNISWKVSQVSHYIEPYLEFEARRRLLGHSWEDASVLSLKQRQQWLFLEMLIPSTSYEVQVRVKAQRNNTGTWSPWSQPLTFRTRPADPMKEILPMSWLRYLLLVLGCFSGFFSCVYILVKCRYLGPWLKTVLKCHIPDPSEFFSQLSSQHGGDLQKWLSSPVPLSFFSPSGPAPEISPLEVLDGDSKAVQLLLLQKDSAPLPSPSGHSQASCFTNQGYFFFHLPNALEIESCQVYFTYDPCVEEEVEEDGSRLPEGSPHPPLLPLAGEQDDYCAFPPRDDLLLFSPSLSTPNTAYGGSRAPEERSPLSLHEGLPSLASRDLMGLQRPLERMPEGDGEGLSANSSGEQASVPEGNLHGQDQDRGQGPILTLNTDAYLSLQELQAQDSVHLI
T1 sequence (P34902 whole entry, species assumed, looked up): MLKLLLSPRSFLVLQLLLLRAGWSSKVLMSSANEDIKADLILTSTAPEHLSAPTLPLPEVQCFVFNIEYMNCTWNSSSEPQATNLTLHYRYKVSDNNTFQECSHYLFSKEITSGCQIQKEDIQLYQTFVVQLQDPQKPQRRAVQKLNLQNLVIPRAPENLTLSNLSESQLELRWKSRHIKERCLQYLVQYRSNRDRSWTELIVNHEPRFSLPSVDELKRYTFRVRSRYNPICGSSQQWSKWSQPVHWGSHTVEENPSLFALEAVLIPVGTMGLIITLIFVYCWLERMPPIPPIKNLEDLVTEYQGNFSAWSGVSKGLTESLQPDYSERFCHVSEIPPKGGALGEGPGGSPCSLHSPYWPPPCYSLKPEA

T2: hIL2Rα (hCD25) (human, UniProt P01589 22-213, limits assumed)
T2 construct: bought recombinant protein; also called hCD25 (Acro); biotin-CD25 (Acro)
T2 sequence (looked up): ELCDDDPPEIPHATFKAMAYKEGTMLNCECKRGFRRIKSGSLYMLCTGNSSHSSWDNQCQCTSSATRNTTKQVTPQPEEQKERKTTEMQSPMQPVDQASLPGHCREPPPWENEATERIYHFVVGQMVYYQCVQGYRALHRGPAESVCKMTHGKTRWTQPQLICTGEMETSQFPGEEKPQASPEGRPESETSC

T3: hIL2Rα/β complex (human, UniProt P01589 22-213; P14784 27-239)
T3 construct: assembled in the BLI assay from bought subunits; also called hIL2Rα/O complex
T3 sequence (looked up) 1: T2 sequence (looked up)
T3 sequence (looked up) 2: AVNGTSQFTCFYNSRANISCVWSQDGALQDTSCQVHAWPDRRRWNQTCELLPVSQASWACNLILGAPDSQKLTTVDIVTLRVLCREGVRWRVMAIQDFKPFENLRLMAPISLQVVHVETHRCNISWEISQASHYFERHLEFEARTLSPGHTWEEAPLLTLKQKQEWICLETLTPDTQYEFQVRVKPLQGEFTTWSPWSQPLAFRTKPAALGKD

T4: hIL2Rα/β/γ complex (human, UniProt P01589 22-213; P14784 27-239; P31785 23-254)
T4 construct: assembled in the BLI assay from bought subunits; also called hIL2Rα/o/γ complex
T4 sequence (looked up) 1: T2 sequence (looked up)
T4 sequence (looked up) 2: T3 sequence (looked up) 2
T4 sequence (looked up) 3: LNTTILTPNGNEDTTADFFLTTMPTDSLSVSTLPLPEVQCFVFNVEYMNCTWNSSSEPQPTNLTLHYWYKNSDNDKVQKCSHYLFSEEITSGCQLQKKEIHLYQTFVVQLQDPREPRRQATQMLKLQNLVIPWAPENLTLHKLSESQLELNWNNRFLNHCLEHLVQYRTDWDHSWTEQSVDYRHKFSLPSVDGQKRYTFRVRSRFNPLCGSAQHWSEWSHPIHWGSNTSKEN

T5: hIL2Rβ (hCD122) (human, UniProt P14784 27-239, limits assumed)
T5 construct: bought recombinant protein; also called hCD122 (Acro)
T5 sequence (looked up): T3 sequence (looked up) 2

B1: hIL2-DM (Δ3, C125L) (ligand)
chain: SSSTKKTQLQLEHLLLDLQMILNGINNYKNPKLTRMLTFKFYMPKKATELKHLQCLEEELGPLEEVLNLAQSKNFHLRPRDLISNIRVIVLELKGSETTFMCEYADETATIVEFLNRWITFLQSIISTLT
notes: first three N-terminal residues (APT) deleted; also called hIL2-DM (Δ3, 125L); hIL2-DM (Δ3, C125L) mutein
B2: IC-Cy08 (other)
heavy: APTSSSTKKTQLQLEHLLLDLQMILNGINNYKNPKLTRMLTFKFYMPKKATELKHLQCLEEELGCLEEVLNLAQSKNFHLRPRDLISNIRVIVLELKGSETTFMCEYADETATIVEFLNRWITFCQSIISTLTGGGGSGGGGSGGGGSGGGGSQVQLVQSGAEVKKPGATVKISCKVSGDTITAYYMHWVRQAPGQGLEWIGRIDPEDDSTKYAENFKGRVTITADTSTDTAYMELSSLRSEDTAVYYCTTVTCYYSRELRWFAYWGQGTLVTVSS
VL: DIVLTQSPATLSLSPGERATLSCQASQDIGNYLSWYQQKPGQAPRLLIYSATSLASGIPARFSGSRSGTDFTLTISSLEPEDFAVYYCLQHYSTPYTFGQGTKLEIK
notes: hIL-2/anti-IL-2 antibody fusion protein, disulfide IL:65-H:97; also called H6K3(H)-Cy08; H6K3(H)-Cy-08
B3: K2G11-Cy06 (other)
heavy: SSSTKKTQLQLEHLLLDLQMILNGINNYKNPKLTRMLTFKFYMPKKATELKHLQCLEEELGPLEEVLNLAQSKNFHLRPRDLISNIRVIVLELKGSETCFMCEYADETATIVEFLNRWITFLQSIISTLTGGGGSGGGGSGGGGSGGGGSQVQLVQSGAEVKKPGATVKISCKVSGDTITAYYMHWVRQAPGQGLEWIGRIDPDDDSTKYAENFKGRVTITADTSTDTAYMELSSLRSEDTAVYYCTTITFLYSRELRWFAYWGQGTLVTVSS
VL: B2 VL with D28Y, G30S, G68C
notes: hIL2-DM (Δ3, C125L) fused to the heavy chain of K2G11, disulfide IL:102-L:68

Key:
[1] = biological target: T1, high-affinity IL2R expressed on the …; assay: cell-based or functional assay
[2] = biological target: T2, hIL2Rα (hCD25); assay: BLI (ForteBio): biotin-CD25 on an SA sensor, buffer step, then sample (100 nM by the text)
[3] = biological target: T3, hIL2Rα/β complex; assay: BLI (ForteBio): biotin-CD25 on an SA sensor, CD122 step, then sample (100 nM by the text) together with CD122
Description: (§1) The specific method was described as follows: biotin-CD25 (Acro) was diluted in 1×PBS to 5 μg/mL and added to a 96-well black-wall plate at 200 μL per well; hIL2Rβ (Acro) was diluted to 5 μg/mL in 1×PBS and also added to the 96-well black-wall plate at 200 μL per well. […] The 96-well black-wall plate containing the testing samples and a SA sensor was uploaded onto the analyzer, and a program was inputted. The SA sensor was firstly immersed into the well with biotin-CD25 (Acro) and then with hIL2Rβ (Acro) till saturation. After that, the sensor was immersed in the testing sample well and the binding signal was recorded in real-time. At the end of each association-dissociation cycle, the sensor was regenerated by immersing in 500 mM phosphate buffer and then started with the next cycle of detection.

[4] = biological target: T4, hIL2Rα/β/γ complex; assay: BLI (ForteBio): biotin-CD25 on an SA sensor, CD122 step, then sample (100 nM by the text) together with CD132
Description: as §1

[5] = biological target: T1, high-affinity IL2R expressed on the …; assay: cell-based or functional assay; remark: listed apart in the source
[6] = biological target: T5, hIL2Rβ (hCD122); assay: ELISA (method of section 2.1.1): sample captured on coated goat anti-human IgG, hCD122 titrated; the x axis is the CD122 concentration
Description: ELISA was performed as follows: a goat anti-human IgG (Jackson Immunoresearch) was diluted to 1 μg/mL in 1×PBS and added to an ELISA plate at 100 μL/well, and then incubated at 4° C. overnight. The plate was washed with PBS and then blocked at room temperature for 1 hour after adding the blocking solution (PBST containing 1% BSA) to each well. […] The plate was washed with PBST; the HRP-labeled anti-6×His-tag secondary antibody (Proteintech) diluted at a ratio of 1:10,000 in blocking solution was then added to each well and incubated at room temperature for 1 hour. The plate was washed with PBST; the TMB chromogenic solution (Thermo) was added to each well and incubated in dark for 3-10 minutes at room temperature. The stop solution (2 M HCl) was added to each well, and OD values at a wavelength of 450-570 nm were read using a multimode microplate reader (Varioskan, Thermo).

[7] = biological target: T2, hIL2Rα (hCD25); assay: ELISA (method of section 4.2.1): sample captured on coated goat anti-human IgG, hCD25 titrated; the x axis is the CD25 concentration
[8] = biological target: T5, hIL2Rβ (hCD122); assay: ELISA (method of section 4.2.1): sample captured on coated goat anti-human IgG, hCD122 titrated; the x axis is the CD122 concentration

Row | Binder | Activity in Promoting CTLL-2 Cell Proliferation (EC50, nM) [1] [nM] | binding result [2] | binding result [3] | binding result [4] | STAT5 phosphorylation in CTLL-2 cells by flow cytometry, EC50 [5] [nM] | binding result [6] | binding result [7] | binding result [8]
1 | B1 | 0.156 | binds | binds | binds | – | – | – | –
2 | B2 | 0.425 | – | – | – | 0.234 | binds | – | –
3 | B3 | 5.77 | – | – | – | – | – | no binding (tested: 10 µg/mL) | binds
